Test results from publication PMC6171324.

B1: human FSTL 1 (hFSTL1): N180Q (Mut-1) (protein)
parent chain: MWKRWLALALALVAVAWVRAEEELRSKSKICANVFCGAGRECAVTEKGEPTCLCIEQCKPHKRPVCGSNGKTYLNHCELHRDACLTGSKIQVDYDGHCKEKKSVSPSASPVVCYQSNRDELRRRIIQWLEAEIIPDGWFSKGSNYSEILDKYFKNFDNGDSRLDSSEFLKFVEQNETAINITTYPDQENNKLLRGLCVDALIELSDENADWKLSFQEFLKCLNPSFNPPEKKCALEDETYADGAETEVDCNRCVCACGNWVCTAMTCDGKNQKGAQTQTEEEMTRYVQELQKHQETAEKTKRVSTKEI
B2: human FSTL 1 (hFSTL1): Mut-(1–3) (protein)
parent chain: B1 parent chain
B3: human FSTL 1 (hFSTL1): N175Q (Mut-2) (protein)
parent chain: B1 parent chain
B4: human FSTL 1 (hFSTL1): N144Q (Mut-3) (protein)
parent chain: B1 parent chain

How the values were obtained:
[1] = CD45 staining 7 days post-MI; conditions: glycan lost; control: hFSTL1 modRNA
[2] = proliferation markers in non-CMs 7 days post-MI; conditions: glycan lost; control: hFSTL1 modRNA
[3] = weighing, 28 days post-MI; conditions: glycan lost; control: Luc modRNA
[4] = CD31 staining, left ventricle, 28 days post-MI; conditions: glycan lost; control: Luc modRNA
[5] = Masson trichrome staining, 28 days post-MI; conditions: glycan lost; control: Luc modRNA (hFSTL1 modRNA not significant)
[6] = CM size in heart sections 7 days post-MI; conditions: glycan lost; control: control constructs
[7] = echography, %EF and %FS, 28 days post-MI; conditions: glycan lost; control: Luc modRNA (hFSTL1 modRNA not significant)

Row | Protein | other: leukocyte infiltration in heart [1] | other: non-CM proliferation in heart [2] | other: heart weight-to-body weight ratio [3] | other: capillary density post-MI [4] | other: scar size post-MI [5] | other: CM size / hypertrophy [6] | other: cardiac function post-MI [7]
1 | B1 | no change | no change | increases | increases | decreases | no change | increases
2 | B2 | no change | no change |  |  | no change | no change | no change
3 | B3 | no change | no change |  |  |  |  | 
4 | B4 | no change | no change |  |  |  |  | 
